{"source": "patent US20230293647A1", "about": "(AUTOLUS, published 2023)", "binders": {"B1": {"name": "dAb clone 9 fused to Fc (Fc fusion)", "chain": "QVQLQESGGGLVQAGDSLRLSCAASGRTSDTMTIGWFRQAPGKEREFVASINWSGSTTYYADSVNERFTISRDDAKNTVYLQMNSLKPEDTAVYYCAAKRGVWTIKSAAADFASWGQGTQVTVSS", "notes": "also called clone C9 fused to Fc"}, "B2": {"name": "74650 (Fc fusion)", "scFv-Fc": "QVQLQQSGAEVKKPGSSVKVSCKASGGTFSSYTISWVRQAPGQGLEWMGGITPILGIANYAQKFQGRVTITTDESTSTAYMELSSLRSEDTAVYYCARDTVMGGMDVWGQGTTVTVSSSYELTQPPSVSVAPGKTARITCGGNNIGSKSVHWYQQKPGQAPVLVVYDDSDRPSGIPERFSGSNSGNTATLTISRVEAGDEADYYCQVWDSSSDYVFGTGTKVTVL"}, "B3": {"name": "74651 (Fc fusion)", "scFv-Fc": "EVQLEESGTVLARPGASVKMSCKASGYTFTTYRMHWIKQRPGQGLEWIGAIYPGNSDTTYNQKFKDKAKLTAVTSTSSAYMELSSLTNEDSAVYFCTREGIPQLLRTLDYWGQGTSVTVSSDILMTQSPSSLSASLGERVSLTCRASQEISGYLSWLQEKPDGTIKRLIYAASTLDSGVPKRFSGSRSGSDYSLTISSLESEDFADYYCLQYVSYPWTFGGGTKLEIK"}, "B4": {"name": "74648 (Fc fusion)", "scFv-Fc": "EVQLVQSGGGVVQPGKSLRLSCAASGFAFSSYAMHWVRQAPGKGLEWVAVISYDGSNKYYADSVKGRFTISRDNSKNTLYLQMNSLRAEDTAVYYCARDRSYYLDYWGQGTLVTVSSETTLTQSPATLSLSPGERATLSCRASQSVRSNLAWYQQKPGQAPRPLIYDASTRATGIPDRFSGSGSGTDFTLTISRLEPEDFAVYYCQQRSNWPPTFGQGTKVEVK"}, "B5": {"name": "74652 (Fc fusion)", "scFv-Fc": "QVQLLESGAELVKPGASVKVSCKASGYTFTSYWIHWVKQRPGQGLEWIGEINPSNGRTNYNGNFESKATLTVDKSSNTAYMHLSSLTYEDSAVYHCTRLDYWGQGTTLTVSSELVMTQSPASLSVITGKKVTIRCISNTDIDDDLNWSQLKAGEPPKLLISEGNIFSPGVPSRFSSSGNGTDFVFTIENTLSEDVANNYCFQSDNMPFTFGSGTKLEIK"}, "B6": {"name": "74653 (Fc fusion)", "scFv-Fc": "QVQLQQPGAELVKPGASVKVSCKASGYTFTNYWIHWVKQRPGQGLEWIGEINPGNGRTNYNGNFMNKATLTVDKSSNTAYMQLSSLTSEDSAVYHCARLDYWGQGTTLTVSSELVMTQSPASLSVATGKKVTIRCISSTDIDDDMNWYQQKAGKPPKLLISEGNIFSPGVPSRFSSSGNGTDFVFTVENTLSEDVADNYCLQSDNMPFTFGSGTKLGIK"}, "B7": {"name": "74662 (Fc fusion)", "scFv-Fc": "EVQLVESGGGLVQPGGSLRLSCAASGFTFSGYPMHWVRQAPGKGLEWVAVISYDGSNKYYADSVKGRFTISRDNSKNTLYLQMNSLRAEDTAVYYCAKDGSPRTPSFDYWGQGTLVTVLEDIQMTQSPHSLSASVGDRVTITCRASQGISNYLAWYQQKPGKVPKLLIYAASTLQSGVPSRFSGSGSGTDFTLTISSLQPEDVGVYYCQQRFRTPVTFGQGTKLEIK"}, "B8": {"name": "74655 (Fc fusion)", "scFv-Fc": "QVQLVQSGAEVKKPGASVKVSCKASGYTFTTYGISWVRQAPGQGLEWMGWISAYNGNTNYAQKLQGRVTMTTDTSTSTAYMELRSLRSDDTAVYYCARDDLSDYGEWLGPDYWGQGTLVTVSSQPGLTQPPSASGTPGQRVTISCSGSRSNIGGNTVNWYQHVPGTAPKLLIYSNNQRPSGVPDRFSGSKSGTSASLAISGLRSEDEAEYYCATWEDSLSGYVFGPGTKVTVL"}, "B9": {"name": "74649 (Fc fusion)", "scFv-Fc": "QAQLVESGGALVQPGRSLRLSCAASGFTFRNYAMHWVRQAPATGLQWLAVITSDGRNKFYADSVKGRFTISREDSKNTLYLQMDSLRGEDTAVYYCVTQRDNSRDYFPHYFHDMDVWGQGTTVAVSSDVVLTQSPLSLPVTLGQPASISCRSSQSLVYSDGDTYLNWFQQRPGQSPRRLIYQVSNRDSGVPDRFSGSGSGTDFTLKISRVEAEDVGVYYCMQGSHWPPTFGQGTKVEIK"}, "B10": {"name": "74667 (Fc fusion)", "scFv-Fc": "QVQLVQSGAEVKKPGESLKISCKGSGYSFANHWIAWVRQMPGKGLEWMGIFNPDNSDTTYSPSFQGQVTFSADKSISIAYLHWSSLKASDTAIYYCARLALSDGWLHDFWGQGTLVTVSSEIVMTQSPLSLPVTLGQPASISCKSSQSLVDTNGNTYLIWFHQRPGQSPRRLIYQVSKRDSGVPDRFSGSGSGTDFTLKISRVEAEDVGVYFCMQGTYRPPTLGQGTKVEIK"}}}
{"target": "T1, SARS-CoV-2 Spike protein, S1 subunit (recombinant) (SARS-CoV-2, UniProt P0DTC2 16-681)", "assay": "ELISA, coated SARS-CoV-2 S1; x axis Log Dilution factor, no concentration"}
{"binder": "B1", "binding result": "binds"}
{"target": "T1, SARS-CoV-2 Spike protein, S1 subunit …", "assay": "ELISA, scFv-Fc supernatant on coated SARS-CoV-2 S1; cut-off 3x background"}
{"binder": "B2", "binding result": "no binding (tested: approximately 10 µg/ml)"}
{"binder": "B3", "binding result": "no binding (tested: approximately 10 µg/ml)"}
{"binder": "B4", "binding result": "no binding (tested: approximately 10 µg/ml)"}
{"binder": "B5", "binding result": "no binding (tested: approximately 10 µg/ml)"}
{"binder": "B6", "binding result": "no binding (tested: approximately 10 µg/ml)"}
{"binder": "B7", "binding result": "no binding (tested: approximately 10 µg/ml)"}
{"binder": "B8", "binding result": "no binding (tested: approximately 10 µg/ml)"}
{"binder": "B9", "binding result": "no binding (tested: approximately 10 µg/ml)"}
{"binder": "B10", "binding result": "no binding (tested: approximately 10 µg/ml)"}
{"target": "SARS-CoV S1 spike protein domain (recombinant) (SARS-CoV, UniProt P59594 14-667)", "assay": "ELISA on coated SARS-CoV S1"}
{"binder": "B1", "binding result": "no binding"}
